Test results from patent US20200223889A1 (Novo Nordisk, published 2020).
Positions of bridges follow the written chain, without caps; N, C: chain ends. Non-standard residues stand in square brackets, D forms with d. Pro(trans-4-guanidino) = N=C(N)N[C@H]1CN[C@H](C(=O)O)C1; Pro(cis-4-guanidino) = NC(N)=N[C@@H]1CN[C@H](C(=O)O)C1; Lys(Me2) = CN(C)CCCC[C@H](N)C(=O)O; Hyp = O=C(O)[C@@H]1C[C@@H](O)CN1; GABA = NCCCC(=O)O; Sar = CNCC(=O)O

B1: Chem. 18 (peptide)
peptide: cyclo(CAH[dF][Lys(Me2)]WCAH[dF][Lys(Me2)]W)
modifications: disulfide 1-7
SMILES: C[C@@H]1NC(=O)[C@@H]2CSSC[C@H](NC(=O)[C@H](Cc3c[nH]c4ccccc34)NC(=O)[C@H](CCCCN(C)C)NC(=O)[C@@H](Cc3ccccc3)NC(=O)[C@H](Cc3c[nH]cn3)NC1=O)C(=O)N[C@@H](C)C(=O)N[C@@H](Cc1c[nH]cn1)C(=O)N[C@H](Cc1ccccc1)C(=O)N[C@@H](CCCCN(C)C)C(=O)N[C@@H](Cc1c[nH]c3ccccc13)C(=O)N2
notes: also called c[c[Cys-Ala-His-D-Phe-Lys(Me)2-Trp-Cys]-Ala-His-D-Phe-Lys(Me)2-Trp]
B2: Chem. 24 (peptide)
peptide: cyclo(CAH[dF]HWCAH[dF]HW)
modifications: disulfide 1-7
SMILES: C[C@@H]1NC(=O)[C@@H]2CSSC[C@H](NC(=O)[C@H](Cc3c[nH]c4ccccc34)NC(=O)[C@H](Cc3c[nH]cn3)NC(=O)[C@@H](Cc3ccccc3)NC(=O)[C@H](Cc3c[nH]cn3)NC1=O)C(=O)N[C@@H](C)C(=O)N[C@@H](Cc1c[nH]cn1)C(=O)N[C@H](Cc1ccccc1)C(=O)N[C@@H](Cc1c[nH]cn1)C(=O)N[C@@H](Cc1c[nH]c3ccccc13)C(=O)N2
notes: also called c[c[Cys-Ala-His-D-Phe-His-Trp-Cys]-Ala-His-D-Phe-His-Trp]
B3: Chem. 27 (peptide)
peptide: cyclo(C[Hyp][dF]RWC[Hyp][dF]RW)
modifications: disulfide 1-6
SMILES: N=C(N)NCCC[C@@H]1NC(=O)[C@@H](Cc2ccccc2)NC(=O)[C@@H]2C[C@@H](O)CN2C(=O)[C@@H]2CSSC[C@H](NC(=O)[C@H](Cc3c[nH]c4ccccc34)NC1=O)C(=O)N1C[C@H](O)C[C@H]1C(=O)N[C@H](Cc1ccccc1)C(=O)N[C@@H](CCCNC(=N)N)C(=O)N[C@@H](Cc1c[nH]c3ccccc13)C(=O)N2
notes: also called c[c[Cys-Hyp-D-Phe-Arg-Trp-Cys]-Hyp-D-Phe-Arg-Trp]
B4: Chem. 28 (peptide)
peptide: cyclo(CAH[dF][Pro(trans-4-guanidino)]WCAH[dF][Pro(trans-4-guanidino)]W)
modifications: disulfide 1-7
SMILES: C[C@@H]1NC(=O)[C@@H]2CSSC[C@H](NC(=O)[C@H](Cc3c[nH]c4ccccc34)NC(=O)[C@@H]3C[C@@H](NC(=N)N)CN3C(=O)[C@@H](Cc3ccccc3)NC(=O)[C@H](Cc3c[nH]cn3)NC1=O)C(=O)N[C@@H](C)C(=O)N[C@@H](Cc1c[nH]cn1)C(=O)N[C@H](Cc1ccccc1)C(=O)N1C[C@H](NC(=N)N)C[C@H]1C(=O)N[C@@H](Cc1c[nH]c3ccccc13)C(=O)N2
notes: also called c[c[Cys-Ala-His-D-Phe-4trans-GuaPro-Trp-Cys]-Ala-His-D-Phe-4trans-GuaPro-Trp]
B5: Chem. 35 (peptide)
peptide: cyclo(C[GABA]H[dF]RWC[GABA]H[dF]RW)
modifications: disulfide 1-7
SMILES: N=C(N)NCCC[C@@H]1NC(=O)[C@@H](Cc2ccccc2)NC(=O)[C@H](Cc2c[nH]cn2)NC(=O)CCCNC(=O)[C@@H]2CSSC[C@H](NC(=O)[C@H](Cc3c[nH]c4ccccc34)NC1=O)C(=O)NCCCC(=O)N[C@@H](Cc1c[nH]cn1)C(=O)N[C@H](Cc1ccccc1)C(=O)N[C@@H](CCCNC(=N)N)C(=O)N[C@@H](Cc1c[nH]c3ccccc13)C(=O)N2
notes: also called c[c[Cys-GABA-His-D-Phe-Arg-Trp-Cys]-GABA-His-D-Phe-Arg-Trp]
B6: Chem. 36 (peptide)
peptide: cyclo(CVH[dF]RWCVH[dF]RW)
modifications: disulfide 1-7
SMILES: CC(C)[C@@H]1NC(=O)[C@@H]2CSSC[C@H](NC(=O)[C@H](Cc3c[nH]c4ccccc34)NC(=O)[C@H](CCCNC(=N)N)NC(=O)[C@@H](Cc3ccccc3)NC(=O)[C@H](Cc3c[nH]cn3)NC1=O)C(=O)N[C@@H](C(C)C)C(=O)N[C@@H](Cc1c[nH]cn1)C(=O)N[C@H](Cc1ccccc1)C(=O)N[C@@H](CCCNC(=N)N)C(=O)N[C@@H](Cc1c[nH]c3ccccc13)C(=O)N2
notes: also called c[c[Cys-Val-His-D-Phe-Arg-Trp-Cys]-Val-His-D-Phe-Arg-Trp]
B7: Chem. 22 (peptide)
peptide: CAHFXWCAHFXW
modifications: D-Phe 4, 10; HArg 5, 11; disulphide Cys1-Cys7; head-to-tail amide Cys1-Trp12
notes: also called c[c[Cys-Ala-His-D-Phe-HArg-Trp-Cys]-Ala-His-D-Phe-HArg-Trp]
B8: Chem. 20 (peptide)
peptide: CXHFRWCXHFRW
modifications: ACBC 2, 8; D-Phe 4, 10; disulphide Cys1-Cys7; head-to-tail amide Cys1-Trp12
notes: also called c[c[Cys-ACBC-His-D-Phe-Arg-Trp-Cys]-ACBC-His-D-Phe-Arg-Trp]
B9: Chem. 4 (peptide)
peptide: cyclo(CH[dF]RWGCH[dF]RWG)
modifications: disulfide 1-7
SMILES: N=C(N)NCCC[C@@H]1NC(=O)[C@@H](Cc2ccccc2)NC(=O)[C@H](Cc2c[nH]cn2)NC(=O)[C@@H]2CSSC[C@H](NC(=O)CNC(=O)[C@H](Cc3c[nH]c4ccccc34)NC1=O)C(=O)N[C@@H](Cc1c[nH]cn1)C(=O)N[C@H](Cc1ccccc1)C(=O)N[C@@H](CCCNC(=N)N)C(=O)N[C@@H](Cc1c[nH]c3ccccc13)C(=O)NCC(=O)N2
notes: also called c[c[Cys-His-D-Phe-Arg-Trp-Gly-Cys]-His-D-Phe-Arg-Trp-Gly]
B10: Chem. 29 (peptide)
peptide: cyclo(CAH[dF][Pro(cis-4-guanidino)]WCAH[dF][Pro(cis-4-guanidino)]W)
modifications: disulfide 1-7
SMILES: C[C@@H]1NC(=O)[C@@H]2CSSC[C@H](NC(=O)[C@H](Cc3c[nH]c4ccccc34)NC(=O)[C@@H]3C[C@H](N=C(N)N)CN3C(=O)[C@@H](Cc3ccccc3)NC(=O)[C@H](Cc3c[nH]cn3)NC1=O)C(=O)N[C@@H](C)C(=O)N[C@@H](Cc1c[nH]cn1)C(=O)N[C@H](Cc1ccccc1)C(=O)N1C[C@@H](N=C(N)N)C[C@H]1C(=O)N[C@@H](Cc1c[nH]c3ccccc13)C(=O)N2
notes: also called c[c[Cys-Ala-His-D-Phe-4cis-GuaPro-Trp-Cys]-Ala-His-D-Phe-4cis-GuaPro-Trp]
B11: Chem. 30 (peptide)
peptide: cyclo(CPH[dF]RWCPH[dF]RW)
modifications: disulfide 1-7
SMILES: N=C(N)NCCC[C@@H]1NC(=O)[C@@H](Cc2ccccc2)NC(=O)[C@H](Cc2c[nH]cn2)NC(=O)[C@@H]2CCCN2C(=O)[C@@H]2CSSC[C@H](NC(=O)[C@H](Cc3c[nH]c4ccccc34)NC1=O)C(=O)N1CCC[C@H]1C(=O)N[C@@H](Cc1c[nH]cn1)C(=O)N[C@H](Cc1ccccc1)C(=O)N[C@@H](CCCNC(=N)N)C(=O)N[C@@H](Cc1c[nH]c3ccccc13)C(=O)N2
notes: also called c[c[Cys-Pro-His-D-Phe-Arg-Trp-Cys]-Pro-His-D-Phe-Arg-Trp]
B12: Chem. 32 (peptide)
peptide: cyclo(C[Hyp]H[dF]RWC[Hyp]H[dF]RW)
modifications: disulfide 1-7
SMILES: N=C(N)NCCC[C@@H]1NC(=O)[C@@H](Cc2ccccc2)NC(=O)[C@H](Cc2c[nH]cn2)NC(=O)[C@@H]2C[C@@H](O)CN2C(=O)[C@@H]2CSSC[C@H](NC(=O)[C@H](Cc3c[nH]c4ccccc34)NC1=O)C(=O)N1C[C@H](O)C[C@H]1C(=O)N[C@@H](Cc1c[nH]cn1)C(=O)N[C@H](Cc1ccccc1)C(=O)N[C@@H](CCCNC(=N)N)C(=O)N[C@@H](Cc1c[nH]c3ccccc13)C(=O)N2
notes: also called c[c[Cys-Hyp-His-D-Phe-Arg-Trp-Cys]-Hyp-His-D-Phe-Arg-Trp]
B13: Chem. 31 (peptide)
peptide: cyclo(C[Sar]H[dF]RWC[Sar]H[dF]RW)
modifications: disulfide 1-7
SMILES: CN1CC(=O)N[C@@H](Cc2c[nH]cn2)C(=O)N[C@H](Cc2ccccc2)C(=O)N[C@@H](CCCNC(=N)N)C(=O)N[C@@H](Cc2c[nH]c3ccccc23)C(=O)N[C@H]2CSSC[C@H](NC(=O)[C@H](Cc3c[nH]c4ccccc34)NC(=O)[C@H](CCCNC(=N)N)NC(=O)[C@@H](Cc3ccccc3)NC(=O)[C@H](Cc3c[nH]cn3)NC(=O)CN(C)C2=O)C1=O
notes: also called c[c[Cys-Sar-His-D-Phe-Arg-Trp-Cys]-Sar-His-D-Phe-Arg-Trp]
B14: Chem. 26 (peptide)
peptide: cyclo(C[Hyp][dF]RWC[Hyp][dF]RW)
modifications: bridge 1-6 via methylene bridge (S-CH2-S)
notes: also called c[c[Cys-Hyp-D-Phe-Arg-Trp-Cys]-Hyp-D-Phe-Arg-Trp]; Note: methylene bridge
B15: Chem. 25 (peptide)
peptide: CXHFRWCXHFRW
modifications: βAla 2, 8; D-Phe 4, 10; disulphide Cys1-Cys7; head-to-tail amide Cys1-Trp12
notes: also called c[c[Cys-βAla-His-D-Phe-Arg-Trp-Cys]-βAla-His-D-Phe-Arg-Trp]
B16: Chem. 37 (peptide)
peptide: CAHFXWCAHFXW
modifications: D-Phe 4, 10; N-MeArg 5, 11; disulphide Cys1-Cys7; head-to-tail amide Cys1-Trp12
notes: also called c[c[Cys-Ala-His-D-Phe-N-MeArg-Trp-Cys]-Ala-His-D-Phe-N-MeArg-Trp]
B17: Chem. 3 (peptide)
peptide: XAHFRWXAHFRW
modifications: HCys 1, 7; D-Phe 4, 10; disulphide HCys1-HCys7; head-to-tail amide HCys1-Trp12
notes: also called c[c[HCys-Ala-His-D-Phe-Arg-Trp-HCys]-Ala-His-D-Phe-Arg-Trp]
B18: Chem. 19 (peptide)
peptide: CAHFXWCAHFXW
modifications: D-Phe 4, 10; Cit 5, 11; disulphide Cys1-Cys7; head-to-tail amide Cys1-Trp12
notes: also called c[c[Cys-Ala-His-D-Phe-Cit-Trp-Cys]-Ala-His-D-Phe-Cit-Trp]
B19: Chem. 23 (peptide)
peptide: cyclo(CA[Hyp][dF]RWCA[Hyp][dF]RW)
modifications: bridge 1-7 via methylene bridge (S-CH2-S)
notes: also called c[c[Cys-Ala-Hyp-D-Phe-Arg-Trp-Cys]-Ala-Hyp-D-Phe-Arg-Trp]; Note: methylene bridge

Experiments:
[1] = target: human melanocortin 1 receptor (human, UniProt Q01726 1-317); test: cell-based or functional assay
Chain of human melanocortin 1 receptor (Q01726 whole entry): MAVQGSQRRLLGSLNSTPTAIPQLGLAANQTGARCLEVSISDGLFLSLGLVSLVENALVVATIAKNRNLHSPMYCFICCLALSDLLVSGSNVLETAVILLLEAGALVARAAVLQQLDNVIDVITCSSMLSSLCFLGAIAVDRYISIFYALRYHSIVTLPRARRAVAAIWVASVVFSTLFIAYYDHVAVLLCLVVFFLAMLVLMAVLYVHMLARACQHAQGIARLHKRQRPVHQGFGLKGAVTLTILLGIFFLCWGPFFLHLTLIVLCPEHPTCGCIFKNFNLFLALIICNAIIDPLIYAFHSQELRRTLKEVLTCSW

[2] = target: T1, human melanocortin 4 receptor (human, UniProt P32245 1-332); test: cell-based or functional assay
T1 sequence (P32245 whole entry): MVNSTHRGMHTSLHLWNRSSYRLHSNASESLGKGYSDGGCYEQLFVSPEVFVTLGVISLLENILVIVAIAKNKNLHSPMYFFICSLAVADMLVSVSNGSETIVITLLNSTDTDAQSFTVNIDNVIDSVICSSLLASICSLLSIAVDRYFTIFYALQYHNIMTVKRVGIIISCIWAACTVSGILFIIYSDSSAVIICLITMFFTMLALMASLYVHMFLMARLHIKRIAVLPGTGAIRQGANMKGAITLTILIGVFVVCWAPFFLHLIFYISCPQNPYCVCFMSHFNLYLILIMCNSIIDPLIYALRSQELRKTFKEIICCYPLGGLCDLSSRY

[3] = target: T1, human melanocortin 4 receptor; test: competition with 125-NDP-α-MSH, BHK human MC4R membranes
Procedure, shortened: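 Competition binding used membranes from BHK cells stably expressing human MC4R with ¹²⁵I-NDP-α-MSH (apx. […] final), compound at 1 μM–0.001 nM. Incubation was 2 h at 25 °C in HEPES pH 7.0 buffer with CaCl₂, MgSO₄, EGTA, Tween 20 and 0.1% HSA or ovalbumin. Filter-bound radioactivity was fitted by non-linear regression.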

Binder | MC1R cAMP EC50 [1] [nM] | MC4R cAMP EC50 [2] [nM] | Ki [3] [nM]
B1 | 4.22 | 0.12 | 0.38
B2 | 178 | 0.49 | 0.55
B3 | 50.9 | 0.24 | 1.01
B4 | > 100 | 518 | 892
B5 | 0.28 | 0.01 | 0.03
B6 | 1.05 | 0.04 | 0.12
B7 | 0.22 | 0.02 | 0.06
B8 | 4.97 | 0.04 | 0.15
B9 | 0.67 | 0.09 | 0.69
B10 | > 100 | 1020 | 1210
B11 | 0.61 | 0.03 | 0.09
B12 | 1.98 | 0.12 | 0.37
B13 | 7.78 | 0.29 | 1.67
B14 | 17.2 | 0.18 | 0.44
B15 | 0.34 | 0.02 | 0.04
B16 | 13.1 | 1.57 | 3.31
B17 | 7.29 | 0.26 | 0.42
B18 | > 1 | 0.13 | 1.49
B19 | > 10 | 3.26 | 13.6
